Tests used:
THOC4 (ALYREF) = THOC4 (ALYREF) (UniProt Q86V81 Q86V81:2-257); assay: SPR
hSSB1 = hSSB1 (Homo sapiens, UniProt Q9BQ15 Q9BQ15:1-211); assay: SPR
Chain of hSSB1 (Q9BQ15 whole entry, one chain of several): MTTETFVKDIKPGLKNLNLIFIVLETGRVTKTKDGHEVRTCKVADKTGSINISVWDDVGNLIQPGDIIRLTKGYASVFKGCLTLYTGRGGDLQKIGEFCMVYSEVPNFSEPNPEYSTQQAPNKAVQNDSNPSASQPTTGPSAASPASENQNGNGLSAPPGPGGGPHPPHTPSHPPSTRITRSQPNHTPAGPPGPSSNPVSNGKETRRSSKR

Row | Binder | binding signal (THOC4 (ALYREF)) [normalized Rmax] | binding signal (hSSB1) [normalized Rmax]
1 | UAAGCUGUUCUAUGUGUU (ssRNA, 2'-OMe all, full PS) [DKLS463500 (SEQ 23)] | 0.32 | 0.74
2 | CCUCUCUGCCGCUCUUGCCU (ssRNA, 2'-OMe all, full PS) [DKLS420640 (SEQ 57)] | 0.03 | 0.48
3 | ACAUCGUUACCAGACAGUGUUA (ssRNA, 2'-OMe all, full PS) [DKLS687764 (SEQ 34)] | 0.75 | 1.47
4 | CUGCCUAAGUAAAAAGUGUAAAC (ssRNA, 2'-OMe all, full PS) [DKLS687118 (SEQ 15)] | 0.51 | 1.21
5 | GUCUCCGUCGUCAUGCUGCC (ssRNA, 2'-OMe all, full PS) [ASO_ATG (DKLS421748)] | 0.33 | 0.64
6 | GAGGCAGCAGUACGACGG (ssRNA, 2'-OMe all, full PS) [LSA_ATG 5' truncation 18 nt] | 1.06 | 0.77
7 | CCAGUGAGCCGAACUUCUCU (ssRNA, 2'-OMe all, full PS) [DKLS459014 (SEQ 62)] | 0.26 | 0.55
8 | GGCAGCAGUACGACGG (ssRNA, 2'-OMe all, full PS) [LSA_ATG 5' truncation 16 nt] | 0.49 | 0.64
9 | CCAUCUGUAAUUACAAAAUUAAA (ssRNA, 2'-OMe all, full PS) [DKLS765774 (SEQ 16)] | 0.97 | 1.93
10 | UUGACAGAUUAAGUCCAUUC (ssRNA, 2'-OMe all, full PS) [DKLS675388 (SEQ 51)] | 0.15 | 0.89
11 | GCCGGACUUGCCU (ssRNA, 2'-OMe all, full PS) [In3E3 5' truncation 13 nt] | 0.01 | 0.22
12 | CAGCAGCAGAGUCUUCAUCAU (ssRNA, 2'-OMe all, full PS) [DKLS354527 (SEQ 21)] | 0.37 | 0.91
13 | UGUCAUAUUCCUGGAUCCUU (ssRNA, 2'-OMe all, full PS) [DKLS684387 (SEQ 29)] | 0.87 | 1.38
14 | GUGCAUGGAAUCACGG (ssRNA, 2'-OMe all, full PS) [Open_A 3' truncation 16 nt] | 0.29 | 0.66
15 | GAGGCAGCAGUACGAC (ssRNA, 2'-OMe all, full PS) [LSA_ATG both-end truncation 16 nt] | 0.44 | 0.67
16 | GAGUAAACAUUCUGUGUGGAGUC (ssRNA, 2'-OMe all, full PS) [DKLS965031 (SEQ 17)] | 0.64 | 1.35
17 | GGUCGUAAUACUUUCACUUA (ssRNA, 2'-OMe all, full PS) [DKLS629224 (SEQ 12)] | 0.47 | 0.97
18 | GGGACGCGGCGCUCGGUCAU (ssRNA, 2'-OMe all, full PS) [DKLS951212 (SEQ 30)] | 1.35 | 2.13
19 | CCACUGAGCCCGACUUCCCU (ssRNA, 2'-OMe all, full PS) [DKLS459520 (SEQ 60)] | 0.03 | 0.63
20 | GCCACCCGUCGGUUGCUAGA (ssRNA, 2'-OMe all, full PS) [DKLS659460 (SEQ 52)] | 0.89 | 1.65

Row | Binder | binding signal (THOC4 (ALYREF)) [normalized Rmax] | binding signal (hSSB1) [normalized Rmax]
21 | GCAGCAGUACGACGG (ssRNA, 2'-OMe all, full PS) [LSA_ATG 5' truncation 15 nt] | 0.31 | 0.46
22 | ACAUGGUUCCCCGACAGUGUUA (ssRNA, 2'-OMe all, full PS) [DKLS687118 (SEQ 35)] | 0.72 | 1.7
23 | GUGCAUGGAAUCACGGAGU (ssRNA, 2'-OMe all, full PS) [Open_A 3' truncation 19 nt] | 0.47 | 1.24
24 | AGAGGCAGCAGUACGACG (ssRNA, 2'-OMe all, full PS) [LSA_ATG both-end truncation 18 nt] | 0.81 | 0.96
25 | GUGCAUGGAAUCACGGA (ssRNA, 2'-OMe all, full PS) [Open_A 3' truncation 17 nt] | 1 | 2.06
26 | CAGAGGCAGCAGUACGACG (ssRNA, 2'-OMe all, full PS) [LSA_ATG 3' truncation 19 nt] | 0.92 | 0.78
27 | UCCUGGAUCCUUCACCAAUG (ssRNA, 2'-OMe all, full PS) [DKLS687192 (SEQ 28)] | 0.76 | 1.08
28 | CAGAGGCAGCAGUACGACGG (ssRNA, 2'-OMe all, ZEN at both ends) [LSA_ATG ZEN (DKLS649218)] |  | 0.15
29 | CCAGUAAGCCAGACUUGCAU (ssRNA, 2'-OMe all, full PS) [DKLS399970 (SEQ 61)] | 0.3 | 0.64
30 | CCAGGGAGCCGGACUUGGCG (ssRNA, 2'-OMe all, full PS) [DKLS712428 (SEQ 64)] | 0.51 | 0.7
31 | UCUCCCAGCGUGCGCCAU (ssRNA, 2'-OMe all, full PS) [DKLS696616 (SEQ 9)] | 1.12 | 0.79
32 | UGUGCUAUUCUGUGAAUU (ssRNA, 2'-OMe all, full PS) [DKLS484655 (SEQ 22)] | 0.22 | 0.43
33 | UCUUAUGUUUCCGAACCGUU (ssRNA, 2'-OMe all, full PS) [DKLS370480 (SEQ 25)] | 0.34 | 0.69
34 | UACCGCGUGCGACCCUCU (ssRNA, full PS) [DKLS371273 (SEQ 7)] | 0.81 | 1.05
35 | UCUCCCAGCAUGUGCCAU (ssRNA, full PS) [DKLS658030 (SEQ 8)] | 0.52 | 0.51
36 | GCCCGUCUGGCGCAUAGCUA (ssRNA, 2'-OMe all, full PS) [DKLS646683 (SEQ 54)] | 0.85 | 0.98
37 | AGGCAGCAGUACGACGG (ssRNA, 2'-OMe all, full PS) [LSA_ATG 5' truncation 17 nt] | 0.8 | 0.68
38 | UCAAGGAAGAUGGCAUUUCU (ssRNA, 2'-OMe all, full PS) [DKLS687764 (SEQ 14)] | 0.55 | 1.12
39 | CCUGUGUGCCCCUCUUCCCU (ssRNA, 2'-OMe all, full PS) [DKLS374580 (SEQ 58)] | 0.12 | 0.68
40 | CACGUACCUUAGUGCCUCAC (ssRNA, 2'-OMe all, ZEN at both ends) [Open_L ZEN (DKLS665920)] | -0.15 | 

Row | Binder | binding signal (THOC4 (ALYREF)) [normalized Rmax] | binding signal (hSSB1) [normalized Rmax]
41 | GCGGGUCCUCUACGCACUGA (ssRNA, 2'-OMe all, full PS) [DKLS649547 (SEQ 53)] | 0.85 | 1.55
42 | CCUGUCAGCCGCACUUGCCU (ssRNA, 2'-OMe all, full PS) [DKLS463357 (SEQ 59)] | 0.39 | 0.95
43 | CAGAGGCAGCAGUACG (ssRNA, 2'-OMe all, full PS) [LSA_ATG 3' truncation 16 nt] | 0.53 | 0.46
44 | GGGCCUCCCGCACUUGAGAU (ssRNA, 2'-OMe all, full PS) [DKLS679059 (SEQ 55)] | 0.37 | 0.85
45 | GUGCAUGGAAUCACGGAG (ssRNA, 2'-OMe all, full PS) [Open_A 3' truncation 18 nt] | 0.39 | 1.03
46 | AGAGGCAGCAGUACGACGG (ssRNA, 2'-OMe all, full PS) [LSA_ATG 5' truncation 19 nt] | 1.1 | 1.02
47 | GGCACGUCCGCCAGUCAUGU (ssRNA, 2'-OMe all, full PS) [DKLS656105 (SEQ 56)] | 0.23 | 0.73
48 | CAGCAGCAGAGUAUUUAUCAU (ssRNA, 2'-OMe all, full PS) [DKLS481254 (SEQ 31)] | 0.46 | 1.1
49 | CUAGUAAGUCGGACUUGCCU (ssRNA, 2'-OMe all, full PS) [DKLS447399 (SEQ 63)] | 1.22 | 1.22
50 | CAGAGGCAGCAGUACGAC (ssRNA, 2'-OMe all, full PS) [LSA_ATG 3' truncation 18 nt] | 0.71 | 0.64
51 | CGGACUUGCCU (ssRNA, 2'-OMe all, full PS) [In3E3 5' truncation 11 nt] | 0.01 | 0.09
52 | UACCGCGUGCGACCCUCU (ssRNA, 2'-OMe all, full PS) [DKLS784557 (SEQ 10)] | 0.49 | 0.69
53 | CAGAGGCAGCAGUACGA (ssRNA, 2'-OMe all, full PS) [LSA_ATG 3' truncation 17 nt] | 1.46 | 1.19
54 | AGGCAGCAGUACGA (ssRNA, 2'-OMe all, full PS) [LSA_ATG both-end truncation 14 nt] | 1.02 | 1.05
55 | UGCUAUCUUAUCACCUUUAG (ssRNA, 2'-OMe all, full PS) [DKLS331584 (SEQ 26)] | 0.15 | 0.48
56 | UCUCCCAGCAUGUGCCAU (ssRNA, 2'-OMe all, full PS) [DKLS832163 (SEQ 11)] | 0.33 | 0.31
57 | GCUCCAGCAUCUGCUGCUUC (ssRNA, 2'-OMe all, full PS) [DKLS491049 (SEQ 32)] | 0.26 | 0.65
58 | GGCGAAUGAGACUUCUCUUA (ssRNA, 2'-OMe all, full PS) [DKLS693540 (SEQ 27)] | 0.89 | 1.64

From US20200230168, “NUCLEIC ACID OLIGOMERS AND USES THEREFOR” (Queensland University of Technology, published 2020)
